Among the targets are FV712‐1481; FV712‐1487; FV712‐1490; FV712‐1484; FV712‐1478.
Common to all, as to test: ELISA

For “Recombinant tissue factor pathway inhibitor alpha (TFPIα) (from UniProt P10646-1 29-304) (natural protein)”, the Kd with FV712‐1481 turned out to be 0.2 nM; with FV712‐1487 it was 0.6 nM; in the assay with FV712‐1490, 1 nM; with FV712‐1484, 0.6 nM; with FV712‐1478 it was 0.2 nM.

A word on the Kd: it is a measure of binding affinity in units of concentration.
